Changes are numbered by the printed parent chain.
Key:
RTEL1∆762 [1] = target: T1, RTEL1∆762 (human, UniProt Q9NZ71-6 762-1300); experiment: fluorescence anisotropy; RNA folded in 0 mM KCl; 20 mM Tris pH 7.5, 50 mM KCl, 0.5 mM TCEP, 0.5 mM MgCl2, 10% glycerol, 0.1% IGEPAL, room temperature 30 min; oligos refolded in 10 mM Tris pH 7.5, 100 mM KCl; EMSA legends give 150 or 300 mM KCl; settings: protein: recombinant; tags: 6xHis; chain copies: 2; label: 5' fluorescein; no G4 (folded without KCl)
T1 sequence: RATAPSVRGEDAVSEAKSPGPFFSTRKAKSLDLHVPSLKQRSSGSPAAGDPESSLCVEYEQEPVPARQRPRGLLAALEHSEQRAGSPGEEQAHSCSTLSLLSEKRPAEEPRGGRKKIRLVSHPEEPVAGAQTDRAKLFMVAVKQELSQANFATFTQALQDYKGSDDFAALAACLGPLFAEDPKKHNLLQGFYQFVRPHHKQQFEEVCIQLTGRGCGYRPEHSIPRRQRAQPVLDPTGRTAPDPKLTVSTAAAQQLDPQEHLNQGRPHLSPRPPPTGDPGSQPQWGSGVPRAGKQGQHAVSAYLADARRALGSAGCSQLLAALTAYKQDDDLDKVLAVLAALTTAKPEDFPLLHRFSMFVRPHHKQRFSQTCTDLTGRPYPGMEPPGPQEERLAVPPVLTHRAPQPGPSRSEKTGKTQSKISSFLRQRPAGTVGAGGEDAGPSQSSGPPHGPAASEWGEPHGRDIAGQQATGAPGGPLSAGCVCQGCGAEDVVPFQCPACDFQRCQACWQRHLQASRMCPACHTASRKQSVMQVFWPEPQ

RTEL1∆762 [2] = target: T1, RTEL1∆762; experiment: fluorescence anisotropy; RNA folded in 100 mM KCl; text: <10 nM, at detection limit; 20 mM Tris pH 7.5, 50 mM KCl, 0.5 mM TCEP, 0.5 mM MgCl2, 10% glycerol, 0.1% IGEPAL, room temperature 30 min; oligos refolded in 10 mM Tris pH 7.5, 100 mM KCl; EMSA legends give 150 or 300 mM KCl; settings: protein: recombinant; tags: 6xHis; chain copies: 2; label: 5' fluorescein; G4
RTEL1∆1143 = target: T2, RTEL1∆1143 (human, UniProt Q9NZ71-6 1143-1300); experiment: EMSA; negligible at 5 uM protein; 150 mM KCl; 20 mM Tris pH 7.5, 50 mM KCl, 0.5 mM TCEP, 0.5 mM MgCl2, 10% glycerol, 0.1% IGEPAL, room temperature 30 min; oligos refolded in 10 mM Tris pH 7.5, 100 mM KCl; EMSA legends give 150 or 300 mM KCl; settings: protein: recombinant; tags: 6xHis; label: 5' fluorescein; G4
T2 sequence: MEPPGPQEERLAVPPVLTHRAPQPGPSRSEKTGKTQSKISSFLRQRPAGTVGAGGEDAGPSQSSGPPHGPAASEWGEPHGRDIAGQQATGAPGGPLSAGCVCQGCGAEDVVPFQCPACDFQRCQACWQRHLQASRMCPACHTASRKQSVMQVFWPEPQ

RTEL1∆762R1264H [3] = target: T3, RTEL1∆762R1264H (human, UniProt Q9NZ71-6 762-1300, R1264H); experiment: competition (fluorescence anisotropy); vs FAM-TERRA-MUT, 200 nM; 20 mM Tris pH 7.5, 50 mM KCl, 0.5 mM TCEP, 0.5 mM MgCl2, 10% glycerol, 0.1% IGEPAL, room temperature 30 min; oligos refolded in 10 mM Tris pH 7.5, 100 mM KCl; EMSA legends give 150 or 300 mM KCl; settings: protein: recombinant, tags: 6xHis
T3 sequence: T1 sequence with R503H

RTEL1∆762-1097 [4] = target: T4, RTEL1∆762-1097 (human, UniProt Q9NZ71-6 762-1097); experiment: as above; settings: protein: recombinant, tags: 6xHis
T4 sequence: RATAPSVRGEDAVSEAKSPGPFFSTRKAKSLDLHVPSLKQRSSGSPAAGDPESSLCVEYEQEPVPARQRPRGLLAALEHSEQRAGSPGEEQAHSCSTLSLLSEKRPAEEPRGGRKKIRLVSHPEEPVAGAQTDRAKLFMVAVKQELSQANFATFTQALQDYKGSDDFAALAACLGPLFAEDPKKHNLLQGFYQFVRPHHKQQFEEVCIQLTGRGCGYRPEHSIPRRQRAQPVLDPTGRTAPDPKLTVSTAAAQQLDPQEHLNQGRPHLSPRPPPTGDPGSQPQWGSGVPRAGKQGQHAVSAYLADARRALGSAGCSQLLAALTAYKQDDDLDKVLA

RTEL1∆762 [5] = target: T1, RTEL1∆762; experiment: as above; settings: protein: recombinant, tags: 6xHis, chain copies: 2
RTEL1∆762R1264H [6] = target: T3, RTEL1∆762R1264H; experiment: competition (fluorescence anisotropy); vs FAM-TERRA-MUT, 1 uM; 20 mM Tris pH 7.5, 50 mM KCl, 0.5 mM TCEP, 0.5 mM MgCl2, 10% glycerol, 0.1% IGEPAL, room temperature 30 min; oligos refolded in 10 mM Tris pH 7.5, 100 mM KCl; EMSA legends give 150 or 300 mM KCl; settings: protein: recombinant, tags: 6xHis
RTEL1∆762-1097 [7] = target: T4, RTEL1∆762-1097; experiment: as above; settings: protein: recombinant, tags: 6xHis
RTEL1∆762 [8] = target: T1, RTEL1∆762; experiment: as above; settings: protein: recombinant, tags: 6xHis, chain copies: 2
[9] = target: the molecule itself; experiment: SEC-MALS; 200-300 µg protein on Superdex 200 10/300 GL, 0.3 ml per minute, 50 mM Hepes pH 7.5, 1 mM TCEP, 150 or 300 mM NaCl; dimer to monomers
RTEL1∆762 [10] = target: T1, RTEL1∆762; experiment: fluorescence anisotropy; 20 mM Tris pH 7.5, 50 mM KCl, 0.5 mM TCEP, 0.5 mM MgCl2, 10% glycerol, 0.1% IGEPAL, room temperature 30 min; oligos refolded in 10 mM Tris pH 7.5, 100 mM KCl; EMSA legends give 150 or 300 mM KCl; settings: protein: recombinant, tags: 6xHis, chain copies: 2, label: 5' fluorescein
RTEL1∆762 [11] = target: T1, RTEL1∆762; experiment: fluorescence anisotropy; RNA folded in 100 mM KCl; 20 mM Tris pH 7.5, 50 mM KCl, 0.5 mM TCEP, 0.5 mM MgCl2, 10% glycerol, 0.1% IGEPAL, room temperature 30 min; oligos refolded in 10 mM Tris pH 7.5, 100 mM KCl; EMSA legends give 150 or 300 mM KCl; settings: protein: recombinant; tags: 6xHis; chain copies: 2; label: 5' fluorescein; no G4
RTEL1∆762 [12] = target: T1, RTEL1∆762; experiment: competition (fluorescence anisotropy); vs FAM-TERRA-MUT, 200 nM; error in main text misprinted as 0.74 nM; 20 mM Tris pH 7.5, 50 mM KCl, 0.5 mM TCEP, 0.5 mM MgCl2, 10% glycerol, 0.1% IGEPAL, room temperature 30 min; oligos refolded in 10 mM Tris pH 7.5, 100 mM KCl; EMSA legends give 150 or 300 mM KCl; settings: protein: recombinant; tags: 6xHis; chain copies: 2; no G4

B1: TERRA (FAM), not folded (0 mM KCl) (ssRNA)
RNA: UUAGGGUUAGGGUUAGGGUUAGGG
Kd (RTEL1∆762 [1]): 37.1 ± 9.6 nM

B2: TERRA (FAM), folded in KCl (structured_RNA)
RNA: UUAGGGUUAGGGUUAGGGUUAGGG
Kd (RTEL1∆762 [2]): 1.3 ± 3.6 nM | binding result (RTEL1∆1143): no binding

B3: TERRA competitor (structured_RNA)
RNA: UUAGGGUUAGGGUUAGGGUUAGGG
Ki (RTEL1∆762R1264H [3]; G4): 30 ± 7 nM | Ki (RTEL1∆762-1097 [4]; G4): 245 ± 35 nM | Ki (RTEL1∆762 [5]; G4): 17 ± 3 nM | Ki (RTEL1∆762R1264H [6]; G4): 107 ± 14 nM | Ki (RTEL1∆762-1097 [7]; G4): 0.978 ± 0.084 µM | Ki (RTEL1∆762 [8]; G4): 29 ± 4 nM

B4: hTelo-MUT (ssDNA)
DNA: GGTTACCGTTACCGTTACCGTTACCGTTAG
Ki (RTEL1∆762R1264H [3]; no G4): 309 ± 68 nM | Ki (RTEL1∆762-1097 [4]; no G4): 826 ± 134 nM | Ki (RTEL1∆762 [5]; no G4): 93 ± 11 nM | Ki (RTEL1∆762R1264H [6]; no G4): 1750 ± 520 nM | Ki (RTEL1∆762-1097 [7]; no G4): 12.6 ± 8.47 µM | Ki (RTEL1∆762 [8]; no G4): 420 ± 140 nM

B5: RTEL1^∆762 (human RTEL1 residues 762-1300, lacks the helicase domain) (domain or fragment, UniProt Q9NZ71-6 762-1300, looked up)
chain: T1 sequence
notes: residue numbers run to 1300; Cloned between EcoRI and XhoI of pET28; expected monomer mass printed as 62 kDa; source: E. coli BL21, purified (His-trap, Hi-Trap Q, Superdex 200)
stoichiometry N [9]: 2

B6: Poly A 24mer (ssRNA)
RNA: AAAAAAAAAAAAAAAAAAAAAAAA
Kd (RTEL1∆762 [10]): 498 ± 47.8 nM

B7: hTelo (structured_DNA)
DNA: GGTTAGGGTTAGGGTTAGGGTTAGGGTTAG
Ki (RTEL1∆762R1264H [3]; G4): 47 ± 9 nM | Ki (RTEL1∆762-1097 [4]; G4): 276 ± 39 nM | Ki (RTEL1∆762 [5]; G4): 29 ± 4 nM | Ki (RTEL1∆762R1264H [6]; G4): 212 ± 17 nM | Ki (RTEL1∆762-1097 [7]; G4): 1.72 ± 0.302 µM | Ki (RTEL1∆762 [8]; G4): 74 ± 12 nM

B8: TERRA-MUT (FAM) (ssRNA)
RNA: UUACCGUUACCGUUACCGUUACCG
Kd (RTEL1∆762 [11]): 108 ± 21.6 nM

B9: AU-rich 24mer (ssRNA)
RNA: AUUAUUAUUAUUAUUAUUAUUAUU
Kd (RTEL1∆762 [10]; unstructured): 42 ± 6.1 nM

B10: TERRA-MUT competitor (ssRNA)
RNA: UUACCGUUACCGUUACCGUUACCG
Ki (RTEL1∆762R1264H [3]; no G4): 850 ± 125 nM | Ki (RTEL1∆762-1097 [4]; no G4): 1650 ± 377 nM | Ki (RTEL1∆762 [12]): 442 ± 74 nM | Ki (RTEL1∆762R1264H [6]; no G4): 3810 ± 1450 nM | Ki (RTEL1∆762-1097 [7]; no G4): 16.1 ± 15.1 µM | Ki (RTEL1∆762 [8]; no G4): 1450 ± 73 nM
